Data: patent US20080274134A1

Target: Protein G on µMACS Protein G microbeads (Group G Streptococci) (UniProt P06654)
Test: immobilisation on µMACS Protein G microbeads

Sequence of UniProt P06654 (P06654 228-352): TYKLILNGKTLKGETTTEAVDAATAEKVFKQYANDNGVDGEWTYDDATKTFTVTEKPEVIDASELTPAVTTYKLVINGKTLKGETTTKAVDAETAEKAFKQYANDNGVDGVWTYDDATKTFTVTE

Substance | capacity of the microbeads (µg per ml of microbead suspension)
human monoclonal antibody 2F5 | 95
human monoclonal antibody 2G12 | 60
human monoclonal antibody IgG1b12 | 55
